Substitutions are numbered along the chain they refer to.
B1: CFP0018 (antibody, V domains shown)
VH: QVQLVQSGAEVKKPGSSVKVSCKASGGTFSSYAISWVRQAPGQGLEWMGGIIPIFGTANYAQKFQGRVTITADESTSTAYMELSSLRSEDTAVYYCARQLYGYYELDIWGQGTLVTVSS
VL: DIQMTQSPSSLSASVGDRVTITCRASQSISDDLAWYQQKPGKAPKLLIYEASSLQSGVPSRFSGSGSGTDFTLTISSLQPEDFATYYCQQYNSYPLTFGQGTKVEIK
notes: IgG format
B2: CFP0018 18L 31N (antibody, V domains shown)
VH: B1 VH
VL: B1 VL with D31N
B3: CFP0018 18L 92T (antibody, V domains shown)
VH: B1 VH
VL: B1 VL with N92T
B4: CFP0018 18L 50D (antibody, V domains shown)
VH: B1 VH
VL: B1 VL with E50D
B5: CFP0018 18L 92D (antibody, V domains shown)
VH: B1 VH
VL: B1 VL with N92D
B6: CFP0018 18L 53H (antibody, V domains shown)
VH: B1 VH
VL: B1 VL with S53H
B7: CFP0017 17L 50E (antibody, V domains shown)
VH: B1 VH with Q99G, L100G, Y101W, G102W, Y103G, Y104G, E105A, I108Y
VL: B1 VL with S30E, Y91S, N92D
B8: CFP0018 18L 53N (antibody, V domains shown)
VH: B1 VH
VL: B1 VL with S53N
B9: CFP0017 17L 91R (antibody, V domains shown)
VH: B1 VH with Q99G, L100G, Y101W, G102W, Y103G, Y104G, E105A, I108Y
VL: B1 VL with S30E, E50H, Y91R, N92D
B10: CFP0017 17L 50A (antibody, V domains shown)
VH: B1 VH with Q99G, L100G, Y101W, G102W, Y103G, Y104G, E105A, I108Y
VL: B1 VL with S30E, E50A, Y91S, N92D
B11: CFP0018 18L 93G (antibody, V domains shown)
VH: B1 VH
VL: B1 VL with S93G
B12: CFP0017 17L 30H (antibody, V domains shown)
VH: B1 VH with Q99G, L100G, Y101W, G102W, Y103G, Y104G, E105A, I108Y
VL: B1 VL with S30H, E50H, Y91S, N92D
B13: CFP0017 (antibody, V domains shown)
VH: B1 VH with Q99G, L100G, Y101W, G102W, Y103G, Y104G, E105A, I108Y
VL: B1 VL with S30E, E50H, Y91S, N92D
notes: IgG format
B14: CFP0018 18L 32Q (antibody, V domains shown)
VH: B1 VH
VL: B1 VL with D32Q
B15: CFP0017 17L 91H (antibody, V domains shown)
VH: B1 VH with Q99G, L100G, Y101W, G102W, Y103G, Y104G, E105A, I108Y
VL: B1 VL with S30E, E50H, Y91H, N92D
B16: CFP0018 18L 94W (antibody, V domains shown)
VH: B1 VH
VL: B1 VL with Y94W
B17: CFP0018 18L 93R (antibody, V domains shown)
VH: B1 VH
VL: B1 VL with S93R
B18: CFP0017 17L 92N (antibody, V domains shown)
VH: B1 VH with Q99G, L100G, Y101W, G102W, Y103G, Y104G, E105A, I108Y
VL: B1 VL with S30E, E50H, Y91S
B19: CFP0017 17L 30A (antibody, V domains shown)
VH: B1 VH with Q99G, L100G, Y101W, G102W, Y103G, Y104G, E105A, I108Y
VL: B1 VL with S30A, E50H, Y91S, N92D
B20: CFP0018 18L 92E (antibody, V domains shown)
VH: B1 VH
VL: B1 VL with N92E
B21: CFP0018 18L 30D (antibody, V domains shown)
VH: B1 VH
VL: B1 VL with S30D
B22: CFP0018 18L 30Y (antibody, V domains shown)
VH: B1 VH
VL: B1 VL with S30Y
B23: CFP0018 18L 92S (antibody, V domains shown)
VH: B1 VH
VL: B1 VL with N92S
B24: CFP0018 18L 94H (antibody, V domains shown)
VH: B1 VH
VL: B1 VL with Y94H
B25: CFP0018 18L 92Q (antibody, V domains shown)
VH: B1 VH
VL: B1 VL with N92Q
B26: CFP0018 18L 30P (antibody, V domains shown)
VH: B1 VH
VL: B1 VL with S30P
B27: CFP0017 17L 30D (antibody, V domains shown)
VH: B1 VH with Q99G, L100G, Y101W, G102W, Y103G, Y104G, E105A, I108Y
VL: B1 VL with S30D, E50H, Y91S, N92D
B28: CFP0018 18L 30N (antibody, V domains shown)
VH: B1 VH
VL: B1 VL with S30N
B29: CFP0018 18L 94F (antibody, V domains shown)
VH: B1 VH
VL: B1 VL with Y94F
B30: CFP0018 18L 96F (antibody, V domains shown)
VH: B1 VH
VL: B1 VL with L96F
B31: CFP0018 18L 96H (antibody, V domains shown)
VH: B1 VH
VL: B1 VL with L96H
B32: CFP0018 18L 30T (antibody, V domains shown)
VH: B1 VH
VL: B1 VL with S30T
B33: CFP0018 18L 53T (antibody, V domains shown)
VH: B1 VH
VL: B1 VL with S53T
B34: CFP0017 17L 92S (antibody, V domains shown)
VH: B1 VH with Q99G, L100G, Y101W, G102W, Y103G, Y104G, E105A, I108Y
VL: B1 VL with S30E, E50H, Y91S, N92S
B35: CFP0018 18L 92P (antibody, V domains shown)
VH: B1 VH
VL: B1 VL with N92P
B36: CFP0018 18L 96I (antibody, V domains shown)
VH: B1 VH
VL: B1 VL with L96I
B37: CFP0017 17L 91Y (antibody, V domains shown)
VH: B1 VH with Q99G, L100G, Y101W, G102W, Y103G, Y104G, E105A, I108Y
VL: B1 VL with S30E, E50H, N92D
B38: CFP0018 18L 30H (antibody, V domains shown)
VH: B1 VH
VL: B1 VL with S30H
B39: CFP0018 18L 30F (antibody, V domains shown)
VH: B1 VH
VL: B1 VL with S30F
B40: CFP0017 17L 30S (antibody, V domains shown)
VH: B1 VH with Q99G, L100G, Y101W, G102W, Y103G, Y104G, E105A, I108Y
VL: B1 VL with E50H, Y91S, N92D
B41: CFP0018 18L 93N (antibody, V domains shown)
VH: B1 VH
VL: B1 VL with S93N
B42: CFP0018 18L 32N (antibody, V domains shown)
VH: B1 VH
VL: B1 VL with D32N
B43: CFP0018 18L 93D (antibody, V domains shown)
VH: B1 VH
VL: B1 VL with S93D
B44: CFP0018 18L 30A (antibody, V domains shown)
VH: B1 VH
VL: B1 VL with S30A
B45: CFP0018 18L 30E (antibody, V domains shown)
VH: B1 VH
VL: B1 VL with S30E
B46: CFP0018 18L 30Q (antibody, V domains shown)
VH: B1 VH
VL: B1 VL with S30Q

Target: T1, human C5 (human, UniProt P01031 19-673; P01031 678-1676, Beta and alpha chains are disulfide-linked and the protein is glycosylated.)
T1 construct: Either in-house recombinant C5 or plasma derived C5 (CALBIOCHEM) was used; also called recombinant human C5; plasma derived human C5
Experiment: Biacore, captured antibody, pH 7.4, 37 C;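 note: biacore binding response of anti-C5 antibody light chain variants captured on chip with human C5 injected, ACES running buffer containing 1.2 mM CaCl₂, parent light chain antibody set to 100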
Procedure: The light chain variants were tested for the binding affinity to C5 at pH 7.4 and at 37 degrees C. using Biacore T200 instrument (GE Healthcare) or Biacore 4000 instrument (GE Healthcare). […] Anti-C5 antibodies were captured on an immobilized molecule, and then human C5 was injected. The running buffer used was pH 7.4 ACES Buffer containing 1.2 mM Ca (20 mM ACES, 150 mM NaCl, 1.2 mM CaCl₂, 0.05% Tween 20). A value, % binding, was determined by normalizing binding response with that of antibody comprising parent light chain as 100.

| Binder | % binding (parent = 100) [%] |
| --- | --- |
| B1 | 100 |
| B2 | 130 |
| B3 | 95.1 |
| B4 | 22.2 |
| B5 | 31.7 |
| B6 | 94.4 |
| B7 | 1 |
| B8 | 91.2 |
| B9 | -4 |
| B10 | 3.3 |
| B11 | 79.1 |
| B12 | 52.1 |
| B13 | 100 |
| B14 | 21.9 |
| B15 | 21.8 |
| B16 | 33.7 |
| B17 | 136 |
| B18 | 36.4 |
| B19 | 79.9 |
| B20 | 40.9 |
| B21 | 17 |
| B22 | 82.4 |
| B23 | 104 |

| Binder | % binding (parent = 100) [%] |
| --- | --- |
| B24 | 17.6 |
| B25 | 125 |
| B26 | 111 |
| B27 | 89.4 |
| B28 | 201 |
| B29 | 28.6 |
| B30 | 31.8 |
| B31 | 114 |
| B32 | 90.7 |
| B33 | 44.5 |
| B34 | 79 |
| B35 | 64.5 |
| B36 | 56 |
| B37 | 0.3 |
| B38 | 87.2 |
| B39 | 85.2 |
| B40 | 79.1 |
| B41 | 107 |
| B42 | 527 |
| B43 | 23.8 |
| B44 | 21.2 |
| B45 | 20.8 |
| B46 | 130 |

Reference: patent publication US20180016327A1 (Chugai, published 2018)
